Measurements published in IntAct's records for PubMed 24152121.

What was measured:
[1] = target: vp26a_mouse Vps26a (UniProt P40336)
[2] = target: vps29_mouse Vps29 (UniProt Q9QZ88)

With “Vacuolar protein sorting-associated protein 35 (Homo sapiens) (from UniProt Q96QK1) D620N” the “effect of a mutation on the interaction” value [1] was “with no effect” and the “effect of a mutation on the interaction” value [2] was “with no effect”.
